pEC50, pIC50, pKd: −log10 of the molar value. Like-named read-outs stand apart in the source and are kept apart here.

We go through one substance from US20210371529A1.

For assay [1], the target named is human LAG-3 overexpressed on HEK293 cells (human) (UniProt P18627). The assay can be described thus: flow cytometry on 293-hLAG-3 cells, MFI curve.
Assay [2] concerns the target human LAG-3-His (human) (UniProt P18627). The assay can be described thus: BLI (ForteBio), antibody on AHQ tip, human LAG-3-His 100 nM in solution, univalent. On the technique in general: BLI is a label-free optical method that tracks binding on a fibre tip over time.
Assay [3] has as its target LAG-3 on activated human CD4+ T cells (human) (UniProt P18627). The assay can be described thus: flow cytometry on activated human CD4+ T cells, MFI curve.
The target of assay [4] is rhLAG3 protein (huFc) (human) (UniProt P18627). Kind of assay: flow cytometry, blocking of rhLAG3 (huFc) 20 nM binding to HLA-DR on CHO-DR cells. (In general: A flow cytometer gives signals particle by particle.)
Assay [5] has as its target human LAG-3-His (human) (UniProt P18627). The assay can be described thus: BLI (ForteBio), antibody on AHQ tip, human LAG-3-His 100 nM in solution.
The target in assay [6] is human LAG-3 overexpressed on HEK293 cells (human) (UniProt P18627). The assay can be described thus: flow cytometry on 293-hLAG-3 cells, MFI curve. This is another data set of the same source.

Chain of human LAG-3-His (human) (P18627 23-450 limits assumed): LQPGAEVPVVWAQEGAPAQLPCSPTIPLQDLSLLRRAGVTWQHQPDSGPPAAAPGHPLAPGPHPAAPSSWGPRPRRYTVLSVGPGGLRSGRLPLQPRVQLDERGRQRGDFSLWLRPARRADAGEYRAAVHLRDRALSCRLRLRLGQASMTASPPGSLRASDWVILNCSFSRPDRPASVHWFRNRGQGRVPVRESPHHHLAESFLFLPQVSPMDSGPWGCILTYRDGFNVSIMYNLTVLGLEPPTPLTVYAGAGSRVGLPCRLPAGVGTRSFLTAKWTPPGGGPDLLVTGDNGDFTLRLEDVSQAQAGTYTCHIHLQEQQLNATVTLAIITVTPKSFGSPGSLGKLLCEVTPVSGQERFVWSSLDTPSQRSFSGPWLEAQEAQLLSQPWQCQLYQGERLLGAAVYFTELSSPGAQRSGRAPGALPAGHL
Chain of human LAG-3 overexpressed on HEK293 cells (human) (P18627 23-525): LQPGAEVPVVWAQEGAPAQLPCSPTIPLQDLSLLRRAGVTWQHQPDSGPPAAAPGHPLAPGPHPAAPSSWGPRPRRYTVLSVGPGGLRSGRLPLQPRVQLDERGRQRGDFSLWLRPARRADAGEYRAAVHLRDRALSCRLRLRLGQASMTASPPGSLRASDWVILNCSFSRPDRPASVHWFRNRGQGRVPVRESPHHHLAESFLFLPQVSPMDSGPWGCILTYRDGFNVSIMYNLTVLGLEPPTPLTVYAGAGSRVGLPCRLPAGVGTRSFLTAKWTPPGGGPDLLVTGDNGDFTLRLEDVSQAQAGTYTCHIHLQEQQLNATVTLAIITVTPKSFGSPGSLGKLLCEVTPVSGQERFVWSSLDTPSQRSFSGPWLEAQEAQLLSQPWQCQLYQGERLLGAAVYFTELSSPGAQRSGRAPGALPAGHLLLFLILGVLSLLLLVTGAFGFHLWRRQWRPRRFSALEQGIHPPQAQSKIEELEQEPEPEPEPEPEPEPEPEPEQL
Chain of LAG-3 on activated human CD4+ T cells (human) (P18627 23-525): as above
Chain of rhLAG3 protein (huFc) (human) (P18627 23-450 limits assumed): as the sequence (P18627 23-450 limits assumed) above

For orientation: pEC50 means −log10 of the EC50, conventionally taken in molar units. Usually pKd stands for −log10 of the Kd, conventionally taken in molar units. A lower pKd goes with a large Kd. Broadly, the pIC50 is −log10 of the IC50, conventionally taken in molar units. Higher therefore signals a low IC50. Broadly, the koff is the first-order rate constant of dissociation. A low value points to slow dissociation. Broadly, the kon is a measure of how fast the partners come together. A high value points to faster complex formation. As for 25F7 (antibody), the negative logarithm of the EC50 (pEC50) is 8.59 in assay [1], 10.44 in assay [3] and 8.48 in assay [6]. Further, the negative-log Kd (pKd) in the assay with human LAG-3-His (human) [2] is 8.04. Besides, the negative-log IC50 (pIC50) in assay [4] was 8.29. In the assay with human LAG-3-His (human) [5], this substance registered a koff of 0.00101 s⁻¹. In the assay with human LAG-3-His (human) [5], this substance gave an on-rate constant (kon) of 112000 M⁻¹ s⁻¹.
